Source: patent publication US10570379B2, “Polypeptides for carbon-carbon bond formation and uses thereof” (INVISTA North America S.à.r.l., priority 2015, dated 2020)

Assays:
[1] = Solubility of the expressed protein (Table 3); settings: protein expressed in E. coli
Method: From a fresh LB plate containing the desired clone transformant, one colony (or small scratch) was picked to inoculate 25 mL of LB supplemented with the relevant antibiotic and the pre-culture was incubated overnight at 37° C., 230 rpm. The following morning, the TB auto-induced medium (Merck/Code product: 71491-5) was prepared by mixing 60 g TB/L supplemented with 10 mL Glycerol/L of TB and microwaved during 3+2 minutes at full power. The TB was cooled down before use and splitting it in sterile flasks. Then, the pre-culture incubated overnight in LB was centrifuged and the supernatant discarded. The obtained pellet was resuspended with 5 mL of freshly prepared TB medium and used to inoculate 500 mL of TB dispensed in sterile flasks and supplemented with the appropriate antibiotic. The inoculated medium was incubated at 28° C. for at least 20 h, 230 rpm.
The culture was centrifuged at least at 3000 g/20 min/4° C. and the pellet used immediately or stored at −80′C.
The pellets (fresh or thawed) were resuspended in 10 to 20 mL of Buffer A (50 mM Hepes+150 mM NaCl+40 mM Imidazole+5% Glycerol−pH 7.5). The resuspended cells were then sonicated in ice for, 5 min at 37% Amplitude with 5″ ON and 15″ OFF sonication pulse. The sonicated cells were centrifuged for at least 20 min at 15500 g and 4° C. The supernatant containing the soluble fraction of proteins was recovered, filtered using 0.45 or 0.2 um filters, and used for His-trap protein purification.

[2] = Activity of YdiF mutant enzymes (evaluation of potential active sites); type: biochemical; settings: studied as in Example 2
Method: YdiF mutants were prepared using the relevant primers to introduce the mutated bases via the Quick change lightning kit (Agilent, code product: 210518-5), and cloned into E. coli. In addition, all the proteins used in this experiment have the following extra amino acids added in the N-terminal extremity of the original protein sequence (SEQ ID NO:1): […]. Those additional amino acids correspond to: two amino acids (M and G), a 6×His-tag followed by a 3 amino acids linker (SSG), and a specific proteolytic cleavage site (thrombin site, underlined) (SEQ ID NO: 22). All the sequences were confirmed by DNA sequencing.
(§1) Acetyl-CoA was used at a final concentration of 1.5 mM and 30 mM of the substrate being studied (e.g. carboxylic acid salts, such as sodium acrylate) or 1.5 mM of propionyl-CoA in 50 mM Hepes buffer (pH 7.5). The reaction was started by addition of 0.5 mg/mL of YdiF pure protein or mutants to a final volume of 250 μL and incubated for 1 to 10 hours at 30° C.
(§2) All samples were prepared in triplicate and spun down at 15000 g for 20 min at 4° C. Detection of the thiol product (e.g. acryloyl-CoA) synthesized from CoA-transferase activity and the keto-thiol product (e.g. 3-oxopent-4-enoyl-CoA) due to putative thiolase activity of YdiF (or homologues) was carried out by Liquid Chromatography coupled to a qTof-Mass spectrometry (in positive mode), using a C18 column (Zorbax Eclipse C18, 2.1×50 mm, 1.8μ, Agilent, code product: 959757-902) and a gradient of 10 mM ammonium acetate and acetonitrile as mobile phase.
Mutations were introduced as described in Example 1 at the following positions previously found to be potentially involved in the active site of other β-ketothiolases: C258A, S60A, C112A, S38A, C390A. Activity of the mutant enzymes was studied as described in Example 2.
Mutations were introduced as described in Example 1 to replace the glutamate in position 324 of YdiF (see Selmer et al., 2002) with glycine (mutant E324G) or leucine (E324L). Activity of the mutant enzymes was studied as described in Example 2.

[3] = Screen for dual transferase/ketothiolase activity with acetyl-CoA and sodium acrylate, LC-MS detection; type: biochemical
Method: as §1
Two controls were made from similar mixture except that the enzymes were inactivated by heating-up at 95° C. for 20 min or they were replaced by Buffer C.
as §2
YdiF from Clostridium propionicum belongs to the enzymatic class EC2.8.3.8. Other members of this enzyme class with similar structural features to YdiF, as well as proteins with a CoA-transferase activity from close-by enzymatic classes, were screened for dual transferase/ketothiolase activity as described in Example 2. Acetyl-CoA and sodium acrylate were provided as substrates. LC-MS was used to detect the thiol-product (propenoyl-CoA) synthesized via the transferase activity and the ketothiol-product (3-oxopent-4-enoyl-CoA) synthesized via the thiolase activity, as described in Example 2.

B1: Bdigene 275: Acetyl-CoA acetyltransferase from Dyadobacter fermentans, Uniprot C6VTZ3, SEQ ID NO: 8 (protein)
chain: MNAYIVAGYRTAVGKAPRGGFRFTRPDDLGAAVIKHLLEKTPQLDPTRVDDVIVGNAVPEAEQGMQMGRYVALLSLPKNVSGITINRYCGSGVEAIAMASAKIHAGMAECIIAGGTESMSLVPTMGWKTALNYEIAHTNPDYYLSMGLTAEQVAQDFKISREAQDNFSFQSHQKALRAQKEGWFAEGIVPVTVKETYFDQASGKKKTKETVISQDEGPRADTTLEALNKLKPVFAAGGSVTAGNSSQTSDGAAFVLVMSERLVNELGLKPIARMMSYATAGVDPRVMGIGPVAAVPLALKQAGLQLKDIQQVELNEAFAAQSLAVIQELGIDPEIVNPNGGAIALGHALGSTGARLSVQLFNEMKRRDQKYGMVTACVGGGQGVAGIYERLN
modifications: Dyadobacter fermentans
Solubility [1]: ✓

B2: S60A: YdiF (SEQ ID NO: 1) mutant, alanine for serine at position 60, N-terminal His-tag (protein, listed as Clostridium propionicum)
chain: MRKVPIITADEAAKLIKDGDTVTTSGFVGNAIPEALDRAVEKRFLETGEPKNITYVYCGAQGNRDGRGAEHFAHEGLLKRYIAGHWATVPALGKMAMENKMEAYNVSQGALCHLFRDIASHKPGVFTKVGIGTFIDPRNGGGKVNDITKEDIVELVEIKGQEYLFYPAFPIHVALIRGTYADESGNITFEKEVAPLEGTSVCQAVKNSGGIVVVQVERVVKAGTLDPRHVKVPGIYVDYVVVADPEDHQQSLDCEYDPALSGEHRRPEVVGEPLPLSAKKVIGRRGAIELEKDVAVNLGVGAPEYVASVADEEGIVDFMTLTAESGAIGGVPAGGVRFGASYNADALIDQGYQFDYYDGGGLDLCYLGLAECDEKGNINVSRFGPRIAGCGGFINITQNTPKVFFCGTFTAGGLKVKIEDGKVIIVQEGKQKKFLKAVEQITFNGDVALANKQQVTYITERCVFLLKEDGLHLSEIAPGIDLQTQILDVMDFAPIIDRDANGQIKLMDAALFAEGLMGLKEMKS
modifications: N-terminal His-tag
thiolase activity [2]: None of the mutations abolished | transferase activity [2]: None of the mutations abolished

B3: C390A: YdiF (SEQ ID NO: 1) mutant, alanine for cysteine at position 390, N-terminal His-tag (protein, listed as Clostridium propionicum)
chain: MRKVPIITADEAAKLIKDGDTVTTSGFVGNAIPEALDRAVEKRFLETGEPKNITYVYCGSQGNRDGRGAEHFAHEGLLKRYIAGHWATVPALGKMAMENKMEAYNVSQGALCHLFRDIASHKPGVFTKVGIGTFIDPRNGGGKVNDITKEDIVELVEIKGQEYLFYPAFPIHVALIRGTYADESGNITFEKEVAPLEGTSVCQAVKNSGGIVVVQVERVVKAGTLDPRHVKVPGIYVDYVVVADPEDHQQSLDCEYDPALSGEHRRPEVVGEPLPLSAKKVIGRRGAIELEKDVAVNLGVGAPEYVASVADEEGIVDFMTLTAESGAIGGVPAGGVRFGASYNADALIDQGYQFDYYDGGGLDLCYLGLAECDEKGNINVSRFGPRIAGAGGFINITQNTPKVFFCGTFTAGGLKVKIEDGKVIIVQEGKQKKFLKAVEQITFNGDVALANKQQVTYITERCVFLLKEDGLHLSEIAPGIDLQTQILDVMDFAPIIDRDANGQIKLMDAALFAEGLMGLKEMKS
modifications: N-terminal His-tag
thiolase activity [2]: None of the mutations abolished | transferase activity [2]: None of the mutations abolished

B4: C112A: YdiF (SEQ ID NO: 1) mutant, alanine for cysteine at position 112, N-terminal His-tag (protein, listed as Clostridium propionicum)
chain: MRKVPIITADEAAKLIKDGDTVTTSGFVGNAIPEALDRAVEKRFLETGEPKNITYVYCGSQGNRDGRGAEHFAHEGLLKRYIAGHWATVPALGKMAMENKMEAYNVSQGALAHLFRDIASHKPGVFTKVGIGTFIDPRNGGGKVNDITKEDIVELVEIKGQEYLFYPAFPIHVALIRGTYADESGNITFEKEVAPLEGTSVCQAVKNSGGIVVVQVERVVKAGTLDPRHVKVPGIYVDYVVVADPEDHQQSLDCEYDPALSGEHRRPEVVGEPLPLSAKKVIGRRGAIELEKDVAVNLGVGAPEYVASVADEEGIVDFMTLTAESGAIGGVPAGGVRFGASYNADALIDQGYQFDYYDGGGLDLCYLGLAECDEKGNINVSRFGPRIAGCGGFINITQNTPKVFFCGTFTAGGLKVKIEDGKVIIVQEGKQKKFLKAVEQITFNGDVALANKQQVTYITERCVFLLKEDGLHLSEIAPGIDLQTQILDVMDFAPIIDRDANGQIKLMDAALFAEGLMGLKEMKS
modifications: N-terminal His-tag
thiolase activity [2]: None of the mutations abolished | transferase activity [2]: None of the mutations abolished

B5: E324L: YdiF mutant, leucine for the glutamate in position 324, SEQ ID NO: 4 (protein)
chain: MGHHHHHHSSGLVPRGSMRKVPIITADEAAKLIKDGDTVTTSGFVGNAIPEALDRAVEKRFLETGEPKNITYVYCGSQGNRDGRGAEHFAHEGLLKRYIAGHWATVPALGKMAMENKMEAYNVSQGALCHLFRDIASHKPGVFTKVGIGTFIDPRNGGGKVNDITKEDIVELVEIKGQEYLFYPAFPIHVALIRGTYADESGNITFEKEVAPLEGTSVCQAVKNSGGIVVVQVERVVKAGTLDPRHVKVPGIYVDYVVVADPEDHQQSLDCEYDPALSGEHRRPEVVGEPLPLSAKKVIGRRGAIELEKDVAVNLGVGAPEYVASVADEEGIVDFMTLTALSGAIGGVPAGGVRFGASYNADALIDQGYQFDYYDGGGLDLCYLGLAECDEKGNINVSRFGPRIAGCGGFINITQNTPKVFFCGTFTAGGLKVKIEDGKVIIVQEGKQKKFLKAVEQITFNGDVALANKQQVTYITERCVFLLKEDGLHLSEIAPGIDLQTQILDVMDFAPIIDRDANGQIKLMDAALFAEGLMGLKEMKS
transferase activity [2]: only partially abolished

B6: Bdigene 271: Acetate CoA-transferase YdiF from Salmonella enterica subsp. houtenaeserovar, Uniprot V1HBS2, SEQ ID NO: 9 (protein, listed as Salmonella enterica)
chain: MLSTKQFTAQQAVELIQDGDKVILGGFIGAVVPEAIEKAIEDKFLAEGHPCNLGLIFAAGQGDAKEKAINRLAHEGLVSSAIGGHWGLIPGLQRLASEGKITGYNLPQGVICHLLRDSAAGKAGTLTHVGLGTFVDPRIEGGKINAKTTEDIVTYININDVENLLYKKLDANIAILRGTTADTHGNITMEDECLILENLAAAQLVHNQGGKVIVQVKRIVPKGSLDPLQVKIPGIFVDALVVADGEAHMQTFAEAMNENYVGRGEKGIRERKIRPLDVKKVIARRAAMELKKNAIVNYGIGIPEIIAQVADEENVTQELIATVEPGAIGGSPAGGLSFGASAFPEAIITQDQMFDFYDGGGLDQAFLGLAETDAKGDLNVSKFGVKIAGCGGFINITQNAKHVFFCGSFTAGDSDIIVEEGKLIIRRDGQIKKFIKHVQQITFSSDTARKNHKPVLYITERAVFRLAAETIELIEIAPGIDLQHDILDKMEFRPTISPALKEMDKRIFSEALMSLSLK
ketothiol-product ([3]; 3-oxopent-4-enoyl-CoA via thiolase activity): ✓ | thiol-product ([3]; propenoyl-CoA via transferase activity): ✓

B7: Bdigene 0343: E-cinnamoyl-CoA: R-phenyilactate CoA transferase from Clostridium sporogenes, Uniprot Q93AM1 (protein, UniProt Q93AM1 1-412, looked up)
Cinnamoyl-CoA:phenyllactate …: MENNTNMFSGVKVIELANFIAAPAAGRFFADGGAEVIKIESPAGDPLRYTAPSEGRPLSQEENTTYDLENANKKAIVLNLKSEKGKKILHEMLAEADILLTNWRTKALVKQGLDYETLKEKYPKLVFAQITGYGEKGPDKDLPGFDYTAFFARGGVSGTLYEKGTVPPNVVPGLGDHQAGMFLAAGMAGALYKAKTTGQGDKVTVSLMHSAMYGLGIMIQAAQYKDHGLVYPINRNETPNPFIVSYKSKDDYFVQVCMPPYDVFYDRFMTALGREDLVGDERYNKIENLKDGRAKEVYSIIEQQMVTKTKDEWDNIFRDADIPFAIAQTWEDLLEDEQAWANDYLYKMKYPTGNERALVRLPVFFKEAGLPEYNQSPQIAENTVEVLKEMGYTEQEIEELEKDKDIMVRKEK
Solubility [1]: ✓
